Like-named read-outs stand apart in the source and are kept apart here.
Legend:
[1] = target: keyhole limpet hemocyanin; assay: polyreactivity ELISA
[2] = target: keyhole limpet hemocyanin; assay: polyreactivity ELISA; remark: listed apart in the source

Bococizumab (antibody)
Binding to KLH (A450 normalised to buffer control) [1]: 47.1 | Binding to KLH (A450 normalised to buffer control) [2]: 24.4
